Results published in paper doi:10.1101/2022.10.05.511023 (bioRxiv, 2022).
Blank lines part the entries; values can stand above or below the binder they belong to.

How the values were obtained:
[1] = molecular target: T1, non-farnesylated GBP1 (guanylate binding protein 1) (human), P32455; assay: dynamic light scattering; conditions: remark: other sources report otherwise
T1 chain: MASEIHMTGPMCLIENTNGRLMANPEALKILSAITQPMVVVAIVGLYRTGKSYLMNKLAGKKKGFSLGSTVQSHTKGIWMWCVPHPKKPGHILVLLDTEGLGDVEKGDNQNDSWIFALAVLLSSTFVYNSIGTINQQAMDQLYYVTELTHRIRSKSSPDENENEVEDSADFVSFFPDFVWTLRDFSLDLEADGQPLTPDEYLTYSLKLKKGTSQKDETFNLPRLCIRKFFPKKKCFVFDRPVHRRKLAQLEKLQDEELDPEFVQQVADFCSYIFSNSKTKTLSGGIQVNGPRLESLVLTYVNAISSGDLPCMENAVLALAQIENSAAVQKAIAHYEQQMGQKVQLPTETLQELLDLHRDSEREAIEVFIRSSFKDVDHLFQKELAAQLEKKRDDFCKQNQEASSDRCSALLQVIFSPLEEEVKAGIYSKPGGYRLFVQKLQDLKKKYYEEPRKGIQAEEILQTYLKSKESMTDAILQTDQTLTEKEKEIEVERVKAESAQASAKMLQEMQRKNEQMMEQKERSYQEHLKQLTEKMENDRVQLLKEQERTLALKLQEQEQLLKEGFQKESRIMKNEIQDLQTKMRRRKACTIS

dynamic light scattering = molecular target: the molecule itself; assay: dynamic light scattering
[2] = molecular target: T2, farnesylated GBP1 (guanylate binding protein 1) (human, UniProt P32455 1-592, farnesylated in vitro (C-terminal farnesyl moiety)); assay: absorbance-based light scattering
T2 sequence: T1 chain

[3] = molecular target: T3, non-geranylgeranylated GBP5 (guanylate binding protein 5) (human), Q96PP8; assay: dynamic light scattering; conditions: remark: other sources report otherwise
T3 chain: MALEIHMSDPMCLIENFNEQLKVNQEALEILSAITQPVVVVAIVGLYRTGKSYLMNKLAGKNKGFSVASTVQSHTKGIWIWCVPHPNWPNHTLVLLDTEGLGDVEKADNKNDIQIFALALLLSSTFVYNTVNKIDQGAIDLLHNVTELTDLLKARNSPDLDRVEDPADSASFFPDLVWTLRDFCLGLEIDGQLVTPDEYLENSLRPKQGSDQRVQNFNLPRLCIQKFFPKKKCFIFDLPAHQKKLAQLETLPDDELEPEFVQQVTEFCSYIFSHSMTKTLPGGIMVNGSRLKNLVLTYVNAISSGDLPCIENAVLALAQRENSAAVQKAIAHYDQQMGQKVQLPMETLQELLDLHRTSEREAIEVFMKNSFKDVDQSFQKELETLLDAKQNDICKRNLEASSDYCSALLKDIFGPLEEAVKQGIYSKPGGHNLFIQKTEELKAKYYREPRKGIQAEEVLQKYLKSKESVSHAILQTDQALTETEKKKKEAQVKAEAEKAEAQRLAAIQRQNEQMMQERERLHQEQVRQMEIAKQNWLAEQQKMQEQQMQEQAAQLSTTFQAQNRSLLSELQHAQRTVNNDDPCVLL

[4] = molecular target: T4, geranylgeranylated GBP5 (guanylate binding protein 5) (human), Q96PP8; assay: dynamic light scattering; conditions: remark: other sources report otherwise
T4 chain: T3 chain

B3: non-geranylgeranylated GBP2 (guanylate binding protein 2) (natural protein, human, UniProt P32456 1-591, looked up)
chain: MAPEINLPGPMSLIDNTKGQLVVNPEALKILSAITQPVVVVAIVGLYRTGKSYLMNKLAGKKNGFSLGSTVKSHTKGIWMWCVPHPKKPEHTLVLLDTEGLGDIEKGDNENDSWIFALAILLSSTFVYNSMGTINQQAMDQLHYVTELTDRIKANSSPGNNSVDDSADFVSFFPAFVWTLRDFTLELEVDGEPITADDYLELSLKLRKGTDKKSKSFNDPRLCIRKFFPKRKCFVFDWPAPKKYLAHLEQLKEEELNPDFIEQVAEFCSYILSHSNVKTLSGGIPVNGPRLESLVLTYVNAISSGDLPCMENAVLALAQIENSAAVEKAIAHYEQQMGQKVQLPTETLQELLDLHRDSEREAIEVFMKNSFKDVDQMFQRKLGAQLEARRDDFCKQNSKASSDCCMALLQDIFGPLEEDVKQGTFSKPGGYRLFTQKLQELKNKYYQVPRKGIQAKEVLKKYLESKEDVADALLQTDQSLSEKEKAIEVERIKAESAEAAKKMLEEIQKKNEEMMEQKEKSYQEHVKQLTEKMERDRAQLMAEQEKTLALKLQEQERLLKEGFENESKRLQKDIWDIQMRSKSLEPICNIL
stoichiometry N (dynamic light scattering): 2

B5: geranylgeranylated GBP5 (guanylate binding protein 5) (natural protein, human, UniProt Q96PP8 1-586, looked up)
chain: T3 chain
modifications: geranylgeranylated in vitro (C-terminal geranylgeranyl moiety)
binding result [2]: binds

B6: geranylgeranylated GBP5 (guanylate binding protein 5), Q96PP8 1-586 (natural protein)
chain: T3 chain
modifications: here or on the partner: geranylgeranylated in vitro (C-terminal geranylgeranyl moiety); geranylgeranylated in vitro (C-terminal geranylgeranyl moiety)
stoichiometry N [4]: 2

Further lines, with some results ahead:

stoichiometry N [1]: 2
B1: non-farnesylated GBP1 (guanylate binding protein 1), P32455 1-592 (natural protein)
chain: T1 chain

binding result [2]: binds
B2: geranylgeranylated GBP2 (guanylate binding protein 2) (natural protein, human, UniProt P32456 1-591, looked up)
chain: B3 chain
modifications: geranylgeranylated in vitro (C-terminal geranylgeranyl moiety)
binding result (dynamic light scattering): binds

stoichiometry N [3]: 2
B4: non-geranylgeranylated GBP5 (guanylate binding protein 5), Q96PP8 1-586 (natural protein)
chain: T3 chain
